Experimental data taken from publication PMC3471760.

Tests used:
[1] = molecular target: YFP-TRPV6 (human ('hTRPV6' in p-0012; the printed GenBank AF160798 is rat, from memory)); test: FRET or BRET
[2] = molecular target: CFP-N198-TRPV6 (human ('hTRPV6' in p-0012; the printed GenBank AF160798 is rat, from memory)); test: FRET or BRET
CFP-N198-TRPV6 (human ('hTRPV6' in p-0012; the printed GenBank AF160798 is rat, from memory)), sequence (Q9R186 whole entry): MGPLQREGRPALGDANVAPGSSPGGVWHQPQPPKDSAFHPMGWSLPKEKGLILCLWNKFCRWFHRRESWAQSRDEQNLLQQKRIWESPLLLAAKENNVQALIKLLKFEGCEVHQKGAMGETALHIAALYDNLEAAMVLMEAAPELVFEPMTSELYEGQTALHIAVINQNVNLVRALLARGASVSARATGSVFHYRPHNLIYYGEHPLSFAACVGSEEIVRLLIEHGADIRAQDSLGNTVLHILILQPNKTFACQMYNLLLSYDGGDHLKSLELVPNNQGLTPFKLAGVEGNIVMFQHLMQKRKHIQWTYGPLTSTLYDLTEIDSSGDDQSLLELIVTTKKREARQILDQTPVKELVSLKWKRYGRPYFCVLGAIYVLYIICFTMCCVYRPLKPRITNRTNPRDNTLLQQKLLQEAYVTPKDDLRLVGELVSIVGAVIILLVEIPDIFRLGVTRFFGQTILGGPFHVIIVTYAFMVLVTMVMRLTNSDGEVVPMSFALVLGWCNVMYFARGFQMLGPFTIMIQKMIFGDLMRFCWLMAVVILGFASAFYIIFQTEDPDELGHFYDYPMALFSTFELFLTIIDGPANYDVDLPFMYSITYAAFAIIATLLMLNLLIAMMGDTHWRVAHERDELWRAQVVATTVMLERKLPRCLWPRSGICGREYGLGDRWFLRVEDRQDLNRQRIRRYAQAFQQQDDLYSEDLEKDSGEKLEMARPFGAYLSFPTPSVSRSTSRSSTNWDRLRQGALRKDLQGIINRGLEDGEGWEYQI

YFP-TRPV6 (human ('hTRPV6' in p-0012; the printed GenBank AF160798 is rat, from memory)), sequence (Q9R186 whole entry): as above

Molecule: CFP-TRPC1 (from UniProt P48995-2 1-759) (natural protein)
- FRET [1]: 0.07

Molecule: CFP-TRPC4 (from UniProt Q9QUQ5-1 1-974) (natural protein)
- FRET [1]: 0.02

Molecule: CFP-TRPC5 (from UniProt Q9QX29 1-975) (natural protein)
- FRET [1]: 0.02

Molecule: YFP-N193-TRPC1 (from UniProt P48995-2 1-193) (domain or fragment)
- FRET [2]: 0.11

B1: CFP-TRPC3 (natural protein)
chain: MSTKVRKCKEQARVTFPAPEEEEDEGEDEGAEPQRRRRGWRGVNGGLEPRSAPSQREPHGYCPPPFSHGPDLSMEGSPSLRRMTVMREKGRRQAVRGPAFMFNDRGTSLTAEEERFLDAAEYGNIPVVRKMLEESKTLNVNCVDYMGQNALQLAVGNEHLEVTELLLKKENLARIGDALLLAISKGYVRIVEAILNHPGFAASKRLTLSPCEQELQDDDFYAYDEDGTRFSPDITPIILAAHCQKYEVVHMLLMKGARIERPHDYFCKCGDCMEKQRHDSFSHSRSRINAYKGLASPAYLSLSSEDPVLTALELSNELAKLANIEKEFKNDYRKLSMQCKDFVVGVLDLCRDSEEVEAILNGDLESAEPLEVHRHKASLSRVKLAIKYEVKKFVAHPNCQQQLLTIWYENLSGLREQTIAIKCLVVLVVALGLPFLAIGYWIAPCSRLGKILRSPFMKFVAHAASFIIFLGLLVFNASDRFEGITTLPNITVTDYPKQIFRVKTTQFTWTEMLIMVWVLGMMWSECKELWLEGPREYILQLWNVLDFGMLSIFIAAFTARFLAFLQATKAQQYVDSYVQESDLSEVTLPPEIQYFTYARDKWLPSDPQIISEGLYAIAVVLSFSRIAYILPANESFGPLQISLGRTVKDIFKFMVLFIMVFFAFMIGMFILYSYYLGAKVNAAFTTVEESFKTLFWSIFGLSEVTSVVLKYDHKFIENIGYVLYGIYNVTMVVVLLNMLIAMINSSYQEIEDDSDVEWKFARSKLWLSYFDDGKTLPPPFSLVPSPKSFVYFIMRIVNFPKCRRRRLQKDIEMGMGNSKSRLNLFTQSNSRVFESHSFNSILNQPTRYQQIMKRLIKRYVLKAQVDKENDEVNEGELKEIKQDISSLRYELLEDKSQATEELAILIHKLSEKLNPSMLRCE
- FRET [1]: 0.01
